# Earlier results in paper PMC8019513.
# pKd: −log10 of the molar value. Like-named read-outs stand apart in the source and are kept apart here.
# Experiments:
# [1] = biological target: IL-8 (Homo sapiens) (UniProt P10145)
# [2] = biological target: IL-8 (Homo sapiens) (UniProt P10145); remark: listed apart in the source
# Chain of IL-8 (Homo sapiens) (P10145 28-99): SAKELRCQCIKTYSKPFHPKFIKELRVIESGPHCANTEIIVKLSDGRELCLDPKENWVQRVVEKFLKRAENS
# Chain of CXCR1 (P25024 whole entry): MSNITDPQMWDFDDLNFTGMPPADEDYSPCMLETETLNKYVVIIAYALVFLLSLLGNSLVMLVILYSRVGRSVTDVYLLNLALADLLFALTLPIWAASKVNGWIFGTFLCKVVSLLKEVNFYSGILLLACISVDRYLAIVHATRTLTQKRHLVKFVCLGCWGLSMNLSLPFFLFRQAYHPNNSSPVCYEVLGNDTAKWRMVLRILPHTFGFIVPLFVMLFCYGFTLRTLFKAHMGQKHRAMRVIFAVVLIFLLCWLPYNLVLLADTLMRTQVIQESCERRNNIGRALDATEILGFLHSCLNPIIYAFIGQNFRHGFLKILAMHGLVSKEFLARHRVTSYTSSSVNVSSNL
# Chain of CXCR2 (P25025 whole entry): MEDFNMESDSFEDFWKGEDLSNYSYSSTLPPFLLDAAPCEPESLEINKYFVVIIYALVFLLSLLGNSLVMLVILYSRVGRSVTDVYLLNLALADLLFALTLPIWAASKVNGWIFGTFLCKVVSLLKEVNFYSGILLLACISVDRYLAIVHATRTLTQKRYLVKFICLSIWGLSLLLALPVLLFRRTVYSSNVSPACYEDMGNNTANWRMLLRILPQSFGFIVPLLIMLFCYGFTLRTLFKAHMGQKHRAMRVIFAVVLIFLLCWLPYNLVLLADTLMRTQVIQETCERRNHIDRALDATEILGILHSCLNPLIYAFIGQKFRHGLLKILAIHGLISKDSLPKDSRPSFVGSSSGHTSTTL
pKd [1],pKd [2],Substance
8.40,,CXCR1 (from UniProt P25024)
,8.40,CXCR2 (from UniProt P25025)
